In patent publication US20150361464A1, “METHODS, REAGENTS AND CELLS FOR BIOSYNTHESIZING COMPOUNDS” (INVISTA North America S.á r.l., priority 2014, published 2015):

Legend:
Type in all cases: biochemical
[1] = ω-transaminase enzyme activity assay (cadaverine to 5-aminopentanal), cell free extract
Protocol: A nucleotide sequence encoding an N-terminal His-tag was added to the Chromobacterium violaceum, Pseudomonas aeruginosa, Pseudomonas syringae, and Escherichia coli genes encoding the ω-transaminases of SEQ ID NOs: 8 to 10 and 12, respectively (see, FIG. 10) such that N-terminal HIS tagged ω-transaminases could be produced. The modified genes were cloned into a pET21a expression vector under the T7 promoter. Each expression vector was transformed into a BL21[DE3] E. coli host. Each resulting recombinant E. coli strain were cultivated at 37° C. in a 250 mL shake flask culture containing 50 mL LB media and antibiotic selection pressure, with shaking at 230 rpm. Each culture was induced overnight at 16° C. using 1 mM IPTG.
(§1) The pellet from each induced shake flask culture was harvested via centrifugation. Each pellet was resuspended and lysed via sonication. The cell debris was separated from the supernatant via centrifugation and the cell free extract was used immediately in enzyme activity assays.
Enzyme activity assays in the reverse direction (i.e., cadaverine to 5-aminopentanal) were performed in a buffer composed of a final concentration of 50 mM HEPES buffer (pH=7.5), 10 mM cadaverine, 10 mM pyruvate, and 100 μM pyridoxyl 5′ phosphate. […] The formation of L-alanine was quantified via RP-HPLC.

[2] = carboxylate reductase enzyme activity assay (5-hydroxypentanoate to 5-hydroxypentanal), NADPH consumption at 340 nm; details: purified enzyme enhanced by the gene product of sfp; 1 mM ATP, 1 mM NADPH, pH 7.5, room temperature, 20 minutes; against the empty vector control; FIG. 14
Protocol: A nucleotide sequence encoding a His-tag was added to the genes from Mycobacterium marinum, Mycobacterium smegmatis, Segniliparus rugosus, Mycobacterium massiliense, and Segniliparus rotundus that encode the carboxylate reductases of SEQ ID NOs: 2-4, 6 and 7, respectively (GenBank Accession Nos. ACC40567.1, ABK71854.1, EFV11917.1, EIV11143.1, and ADG98140.1, respectively) (see FIG. 10) such that N-terminal HIS tagged carboxylate reductases could be produced. Each of the modified genes was cloned into a pET Duet expression vector alongside a sfp gene encoding a His-tagged phosphopantetheine transferase from Bacillus subtilis, both under control of the T7 promoter. Each expression vector was transformed into a BL21[DE3] E. coli host along with the expression vectors from Example 3. Each resulting recombinant E. coli strain was cultivated at 37° C. in a 250 mL shake flask culture containing 50 mL LB media and antibiotic selection pressure, with shaking at 230 rpm. Each culture was induced overnight at 37° C. using an auto-induction media. […]
Enzyme activity (i.e., 5-hydroxypentanoate to 5-hydroxypentanal) assays were performed in triplicate in a buffer composed of a final concentration of 50 mM HEPES buffer (pH=7.5), 2 mM 5-hydroxypentanal, 10 mM MgCl2, 1 mM ATP, and 1 mM NADPH. […] The consumption of NADPH was monitored by absorbance at 340 nm. […]

[3] = ω-transaminase enzyme activity assay, forward direction (glutarate semialdehyde to 5-aminopentanoate), cell free extract
Protocol: A nucleotide sequence encoding an N-terminal His-tag was added to the genes from Chromobacterium violaceum and Rhodobacter sphaeroides encoding the ω-transaminases of SEQ ID NOs: 8 and 10 respectively (see FIG. 10) such that N-terminal HIS tagged ω-transaminases could be produced. Each of the resulting modified genes was cloned into a pET21a expression vector under control of the T7 promoter and each expression vector was transformed into a BL21[DE3] E. coli host. The resulting recombinant E. coli strains were cultivated at 37° C. in a 250 mL shake flask culture containing 50 mL LB media and antibiotic selection pressure, with shaking at 230 rpm. Each culture was induced overnight at 16° C. using 1 mM IPTG.
as §1
Enzyme activity in the forward direction (i.e., glutarate semialdehyde to 5-aminopentanoate) was confirmed for the transaminase of SEQ ID NO: 10. Enzyme activity assays were performed in a buffer composed of a final concentration of 50 mM HEPES buffer (pH=7.5), 10 mM glutarate semialdehyde, 10 mM L-alanine and 100 μM pyridoxyl 5′ phosphate. Each enzyme activity assay reaction was initiated by adding a cell free extract of the ω-transaminase gene product or the empty vector control to the assay buffer containing the glutarate semialdehyde and incubated at 25° C. for 4 hours, with shaking at 250 rpm. The formation of pyruvate was quantified via RP-HPLC.

B1: SEQ ID NO: 12: Escherichia coli ω-transaminase, N-terminal HIS tagged, cell free extract (protein, listed as Escherichia coli)
chain: MNRLPSSASALACSAHALNLIEKRTLDHEEMKALNREVIEYFKEHVNPGFLEYRKSVTAGGDYGAVEWQAGSLNTLVDTQGQEFIDCLGGFGIFNVGHRNPVVVSAVQNQLAKQPLHSQELLDPLRAMLAKTLAALTPGKLKYSFFCNSGTESVEAALKLAKAYQSPRGKFTFIATSGAFHGKSLGALSATAKSTFRKPFMPLLPGFRHVPFGNIEAMRTALNECKKTGDDVAAVILEPIQGEGGVILPPPGYLTAVRKLCDEFGALMILDEVQTGMGRTGKMFACEHENVQPDILCLAKALGGGVMPIGATIATEEVFSVLFDNPFLHTTTFGGNPLACAAALATINVLLEQNLPAQAEQKGDMLLDGFRQLAREYPDLVQEARGKGMLMAIEFVDNEIGYNFASEMFRQRVLVAGTLNNAKTIRIEPPLTLTIEQCELVIKAARKALAAMRVSVEEA
modifications: N-terminal His tag
notes: Escherichia coli ω-transaminase, N-terminal HIS tagged, cell free extract
acceptance of cadaverine as substrate (formation of L-alanine from pyruvate, RP-HPLC) ([1]; 10 mM cadaverine, 10 mM pyruvate, pH 7.5, 25° C., 4 hours, against the empty vector control, FIG. 11): accepted cadaverine as substrate
acceptance of 5-aminopentanal as substrate forming cadaverine, concluded from reversibility of the ω-transaminase activity ([1]; conclusion given reversibility (Example 1)): accept 5-aminopentanal as substrate and form cadaverine

B2: SEQ ID NO: 6: Mycobacterium massiliense carboxylate reductase, N-terminal HIS tagged (protein)
chain: MTNETNPQQEQLSRRIESLRESDPQFRAAQPDPAVAEQVLRPGLHLSEAIAALMTGYAERPALGERARELVIDQDGRTTLRLLPRFDTTTYGELWSRTTSVAAAWHHDATHPVKAGDLVATLGFTSIDYTVLDLAIMILGGVAVPLQTSAPASQWTTILAEAEPNTLAVSIELIGAAMESVRATPSIKQVVVFDYTPEVDDQREAFEAASTQLAGTGIALETLDAVIARGAALPAAPLYAPSAGDDPLALLIYTSGSTGAPKGAMHSENIVRRWWIREDVMAGTENLPMIGLNFMPMSHIMGRGTLTSTLSTGGTGYFAASSDMSTLFEDMELIRPTALALVPRVCDMVFQRFQTEVDRRLASGDTASAEAVAAEVKADIRDNLFGGRVSAVMVGSAPLSEELGEFIESCFELNLTDGYGSTEAGMVFRDGIVQRPPVIDYKLVDVPELGYFSTDKPHPRGELLLKTDGMFLGYYKRPEVTASVFDADGFYMTGDIVAELAHDNIEIIDRRNNVLKLSQGEFVAVATLEAEYANSPVVHQIYVYGSSERSYLLAVVVPTPEAVAAAKGDAAALKTTIADSLQDIAKEIQLQSYEVPRDFIIEPQPFTQGNGLLTGIAKLARPNLKAHYGPRLEQMYAEIAEQQAAELRALHGVDPDKPALETVLKAAQALLGVSSAELAADAHFTDLGGDSLSALSFSDLLRDIFAVEVPVGVIVSAANDLGGVAKFVDEQRHSGGTRPTAETVHGAGHTEIRAADLTLDKFIDEATLHAAPSLPKAAGIPHTVLLTGSNGYLGHYLALEWLERLDKTDGKLIVIVRGKNAEAAYGRLEEAFDTGDTELLAHFRSLADKHLEVLAGDIGDPNLGLDADTWQRLADTVDVIVHPAALVNHVLPYNQLFGPNVVGTAEIIKLAITTKIKPVTYLSTVAVAAYVDPTTFDEESDIRLISAVRPIDDGYANGYGNAKWAGEVLLREAHDLCGLPVAVFRSDMILAHSRYTGQLNVPDQFTRLILSLIATGIAPGSFYQAQTTGERPLAHYDGLPGDFTAEAITTLGTQVPEGSEGFVTYDCVNPHADGISLDNFVDWLIEAGYPIARIDNYTEWFTRFDTAIRGLSEKQKQHSLLPLLHAFEQPSAAENHGVVPAKRFQHAVQAAGIGPVGQDGTTDIPHLSRRLIVKYAKDLEQLGLL
modifications: N-terminal His tag; Mycobacterium massiliense
notes: Mycobacterium massiliense carboxylate reductase, N-terminal HIS tagged
acceptance of 5-hydroxypentanoate as substrate (consumption of NADPH, absorbance at 340 nm) [2]: accepted 5-hydroxypentanoate as substrate

B3: SEQ ID NO: 10: Pseudomonas syringae ω-transaminase (b222 says Rhodobacter sphaeroides), N-terminal HIS tagged, cell free extract (protein, listed as Pseudomonas syringae)
chain: MSANNPQTLEWQALSSEHHLAPFSDYKQLKEKGPRIITRAEGVYLWDSEGNKILDGMSGLWCVAIGYGREELADAASKQMRELPYYNLFFQTAHPPVLELAKAISDIAPEGMNHVFFTGSGSEGNDTMLRMVRHYWALKGQPNKKTIISRVNGYHGSTVAGASLGGMTYMHEQGDLPIPGVVHIPQPYWFGEGGDMTPDEFGIWAAEQLEKKILELGVENVGAFIAEPIQGAGGVIVPPDSYWPKIKEILSRYDILFAADEVICGFGRTSEWFGSDFYGLRPDMMTIAKGLTSGYVPMGGLIVRDEIVAVLNEGGDFNHGFTYSGHPVAAAVALENIRILREEKIVERVRSETAPYLQKRLRELSDHPLVGEVRGVGLLGAIELVKDKTTRERYTDKGAGMICRTFCFDNGLIMRAVGDTMIIAPPLVISFAQIDELVEKARTCLDLTLAVLQG
modifications: N-terminal His tag
acceptance of glutarate semialdehyde as substrate (formation of pyruvate from L-alanine, RP-HPLC) ([3]; 10 mM glutarate semialdehyde, 10 mM L-alanine, pH 7.5, 25° C., 4 hours, against the empty vector control, FIG. 16): accepted glutarate semialdehyde as substrate
acceptance of glutarate semialdehyde as substrate and synthesis of 5-aminopentanoate, concluded from reversibility of the ω-transaminase activity ([3]; conclusion from reverse and forward direction assays): accepted glutarate semialdehyde as substrate and synthesized 5-aminopentanoate

B4: SEQ ID NO: 7: Segniliparus rotundus carboxylate reductase, N-terminal HIS tagged (protein, listed as Segniliparus rotundus)
chain: MTQSHTQGPQASAAHSRLARRAAELLATDPQAAATLPDPEVVRQATRPGLRLAERVDAILSGYADRPALGQRSFQTVKDPITGRSSVELLPTFDTITYRELRERATAIASDLAHHPQAPAKPGDFLASIGFISVDYVAIDIAGVFAGLTAVPLQTGATLATLTAITAETAPTLFAASIEHLPTAVDAVLATPSVRRLLVFDYRAGSDEDREAVEAAKRKIADAGSSVLVDVLDEVIARGKSAPKAPLPPATDAGDDSLSLLIYTSGSTGTPKGAMYPERNVAHFWGGVWAAAFDEDAAPPVPAINITFLPLSHVASRLSLMPTLARGGLMHFVAKSDLSTLFEDLKLARPTNLFLVPRVVEMLYQHYQSELDRRGVQDGTREAEAVKDDLRTGLLGGRILTAGFGSAPLSAELAGFIESLLQIHLVDGYGSTEAGPVWRDGYLVKPPVTDYKLIDVPELGYFSTDSPHPRGELAIKTQTILPGYYKRPETTAEVFDEDGFYLTGDVVAQIGPEQFAYVDRRKNVLKLSQGEFVTLAKLEAAYSSSPLVRQLFVYGSSERSYLLAVIVPTPDALKKFGVGEAAKAALGESLQKIARDEGLQSYEVPRDFIIETDPFTVENGLLSDARKSLRPKLKEHYGERLEAMYKELADGQANELRDIRRGVQQRPTLETVRRAAAAMLGASAAEIKPDAHFTDLGGDSLSALTFSNFLHDLFEVDVPVGVIVSAANTLGSVAEHIDAQLAGGRARPTFATVHGKGSTTIKASDLTLDKFIDEQTLEAAKHLPKPADPPRTVLLTGANGWLGRFLALEWLERLAPAGGKLITIVRGKDAAQAKARLDAAYESGDPKLAGHYQDLAATTLEVLAGDFSEPRLGLDEATWNRLADEVDFISHPGALVNHVLPYNQLFGPNVAGVAEIIKLAITTRIKPVTYLSTVAVAAGVEPSALDEDGDIRTVSAERSVDEGYANGYGNSKWGGEVLLREAHDRTGLPVRVFRSDMILAHQKYTGQVNATDQFTRLVQSLLATGLAPKSFYELDAQGNRQRAHYDGIPVDFTAESITTLGGDGLEGYRSYNVFNPHRDGVGLDEFVDWLIEAGHPITRIDDYDQWLSRFETSLRGLPESKRQASVLPLLHAFARPGPAVDGSPFRNTVFRTDVQKAKIGAEHDIPHLGKALVLKYADDIKQLGLL
modifications: N-terminal His tag
notes: Segniliparus rotundus carboxylate reductase, N-terminal HIS tagged
acceptance of 5-hydroxypentanoate as substrate (consumption of NADPH, absorbance at 340 nm) [2]: accepted 5-hydroxypentanoate as substrate
